Among the targets are HLA-A*03:01; HLA-A*68:01; HLA-A*31:01; HLA-A*33:01; HLA-A*11:01.
Holding throughout (experiment): IEDB peptide-MHC binding, purified MHC/competitive/radioactivity; filed as Kd, often an IC50 or EC50 that approximates it; ≥ and ≤ were set here for values at or beyond the usual limits of such assays
[1] abbreviates: source organism: Vaccinia virus WR.
Where [2] appears, read: source organism: SARS coronavirus Tor2.
The mark [3] stands for this setting: source organism: Mammarenavirus whitewaterense.
[4] abbreviates: source organism: Vaccinia virus Copenhagen.
The mark [5] stands for this setting: source organism: Lymphocytic choriomeningitis virus (strain Armstrong).
[6] abbreviates: source organism: Mammarenavirus choriomeningitidis.

Regarding MLTNAISSR, the Kd in the experiment with HLA-A*03:01 (setting [1]) came out at 13.1 nM; with HLA-A*68:01 (setting [1]), 13.4 nM; with HLA-A*31:01 (setting [1]), 9.57 nM; with HLA-A*33:01 (setting [1]), 237 nM; with HLA-A*11:01 (setting [1]), 4110 nM.
For the sequence MLYQLLEAVY, the equilibrium dissociation constant (Kd) with HLA-A*03:01 (setting [1]) was 1460 nM; with HLA-A*68:01 (setting [1]) it was 3350 nM; in the experiment with HLA-A*31:01 (setting [1]), 10800 nM; in the experiment with HLA-A*33:01 (setting [1]), 15700 nM; in the experiment with HLA-A*11:01 (setting [1]), 13700 nM.
In the case of MQKESDDYIK, the Kd in the experiment with HLA-A*03:01 (setting [2]) was 13200 nM; with HLA-A*68:01 (setting [2]) it was 1550 nM; with HLA-A*31:01 (setting [2]), 5790 nM; in the experiment with HLA-A*33:01 (setting [2]) it was ≥ 70000 nM; with HLA-A*11:01 (setting [2]), 364 nM.
In the case of NARGEDTQMR, the Kd with HLA-A*03:01 (setting [1]) is ≥ 41400 nM; with HLA-A*68:01 (setting [1]), 16.2 nM; in the experiment with HLA-A*31:01 (setting [1]), 1770 nM; with HLA-A*33:01 (setting [1]), 2120 nM; in the experiment with HLA-A*11:01 (setting [1]) it was ≥ 69000 nM.
With NIAEYIAGLK, the Kd is 132 nM with HLA-A*03:01 (setting [1]); 14.5 nM with HLA-A*68:01 (setting [1]); ≥ 70000 nM in the experiment with HLA-A*31:01 (setting [1]); ≥ 25200 nM with HLA-A*33:01 (setting [1]); 518 nM in the experiment with HLA-A*11:01 (setting [1]).
On to NQATTKTTFK, for which the Kd with HLA-A*03:01 (setting [2]) was 378 nM; in the experiment with HLA-A*68:01 (setting [2]), 506 nM; in the experiment with HLA-A*31:01 (setting [2]), 4270 nM; with HLA-A*33:01 (setting [2]) it was ≥ 26500 nM; with HLA-A*11:01 (setting [2]) it was 440 nM.
In the case of PCMINDTHFL, the equilibrium dissociation constant (Kd) in the experiment with HLA-A*03:01 (setting [3]) was ≥ 70000 nM; with HLA-A*68:01 (setting [3]), ≥ 40100 nM; with HLA-A*31:01 (setting [3]), 11600 nM; with HLA-A*33:01 (setting [3]) it was ≥ 48500 nM; in the experiment with HLA-A*11:01 (setting [3]) it was ≥ 46800 nM.
With PSIFLIITK, the equilibrium dissociation constant (Kd) was 166 nM with HLA-A*03:01 (setting [1]); 4130 nM in the experiment with HLA-A*68:01 (setting [1]); 9350 nM with HLA-A*31:01 (setting [1]); 10900 nM in the experiment with HLA-A*33:01 (setting [1]); 36 nM with HLA-A*11:01 (setting [1]).
As for PVLKAMHDKK, the equilibrium dissociation constant (Kd) is 8510 nM with HLA-A*03:01 (setting [1]); ≥ 70200 nM with HLA-A*68:01 (setting [1]); ≥ 70000 nM with HLA-A*31:01 (setting [1]); ≥ 70000 nM with HLA-A*33:01 (setting [1]); ≥ 24800 nM with HLA-A*11:01 (setting [1]).
In the case of PVYISQFSY, the dissociation constant (Kd) with HLA-A*03:01 (setting [1]) was 16300 nM; with HLA-A*68:01 (setting [1]), ≥ 22400 nM; in the experiment with HLA-A*31:01 (setting [1]), ≥ 25900 nM; in the experiment with HLA-A*33:01 (setting [1]), 16200 nM; in the experiment with HLA-A*11:01 (setting [1]), 1750 nM.
In the case of PVYISQFSYK, the Kd was determined as 1.26 nM in the experiment with HLA-A*03:01 (setting [4]); 95.2 nM in the experiment with HLA-A*68:01 (setting [4]); 13.3 nM with HLA-A*31:01 (setting [4]); 54 nM with HLA-A*33:01 (setting [4]); 19.2 nM with HLA-A*11:01 (setting [4]).
Consider QIFNEDTSY, for which the dissociation constant Kd with HLA-A*03:01 (setting [1]) is 3610 nM; in the experiment with HLA-A*68:01 (setting [1]), 6330 nM; with HLA-A*31:01 (setting [1]), ≥ 77900 nM; with HLA-A*33:01 (setting [1]), ≥ 77700 nM; in the experiment with HLA-A*11:01 (setting [1]), 73.2 nM.
Consider QSYKETVHK, for which the Kd in the experiment with HLA-A*03:01 (setting [1]) was 21.7 nM; with HLA-A*68:01 (setting [1]), 37.6 nM; with HLA-A*31:01 (setting [1]), 5550 nM; in the experiment with HLA-A*33:01 (setting [1]), ≥ 77700 nM; with HLA-A*11:01 (setting [1]) it was 43.4 nM.
Turning to QTSVNTVVR, the Kd is ≥ 63600 nM with HLA-A*03:01 (setting [1]); 73.3 nM in the experiment with HLA-A*68:01 (setting [1]); 4010 nM with HLA-A*31:01 (setting [1]); 7260 nM in the experiment with HLA-A*33:01 (setting [1]); 923 nM with HLA-A*11:01 (setting [1]).
Take RNPYENILYK: the Kd was 7040 nM with HLA-A*03:01 (setting [5]); 5510 nM in the experiment with HLA-A*68:01 (setting [5]); 16400 nM in the experiment with HLA-A*31:01 (setting [5]); ≥ 37800 nM with HLA-A*33:01 (setting [5]); 3480 nM with HLA-A*11:01 (setting [5]).
Take RQVVNVITTK: the Kd with HLA-A*03:01 (setting [2]) was 114 nM; in the experiment with HLA-A*68:01 (setting [2]), 305 nM; with HLA-A*31:01 (setting [2]) it was 2670 nM; with HLA-A*33:01 (setting [2]), ≥ 39600 nM; with HLA-A*11:01 (setting [2]), 216 nM.
For SAYLISIFMH, the equilibrium dissociation constant (Kd) with HLA-A*03:01 (setting [6]) was 1230 nM; with HLA-A*68:01 (setting [6]) it was ≥ 70100 nM; with HLA-A*31:01 (setting [6]), 659 nM; with HLA-A*33:01 (setting [6]) it was 2950 nM; with HLA-A*11:01 (setting [6]), 5630 nM.
For SIENKHQRR, the Kd in the experiment with HLA-A*03:01 (setting [1]) is ≥ 23900 nM; with HLA-A*68:01 (setting [1]), 627 nM; in the experiment with HLA-A*31:01 (setting [1]) it was 165 nM; in the experiment with HLA-A*33:01 (setting [1]) it was 696 nM; with HLA-A*11:01 (setting [1]), 6370 nM.
On to SLENLDPDNK, for which the Kd was 2920 nM with HLA-A*03:01 (setting [1]); 1360 nM in the experiment with HLA-A*68:01 (setting [1]); 17000 nM with HLA-A*31:01 (setting [1]); ≥ 22400 nM with HLA-A*33:01 (setting [1]); 6.89 nM with HLA-A*11:01 (setting [1]).
Take SLIDLQELGK: the Kd came out at 183 nM with HLA-A*03:01 (setting [2]); 94.5 nM in the experiment with HLA-A*68:01 (setting [2]); 75.9 nM with HLA-A*31:01 (setting [2]); 1400 nM with HLA-A*33:01 (setting [2]); 178 nM with HLA-A*11:01 (setting [2]).
On to SLNSMYTRLR, for which the dissociation constant (Kd) with HLA-A*03:01 (setting [1]) stood at 47.2 nM; with HLA-A*68:01 (setting [1]) it was 81.2 nM; with HLA-A*31:01 (setting [1]), 0.291 nM; in the experiment with HLA-A*33:01 (setting [1]), 0.997 nM; with HLA-A*11:01 (setting [1]), 1780 nM.
With SQNPLAELK, the Kd with HLA-A*03:01 (setting [2]) was ≥ 22700 nM; in the experiment with HLA-A*68:01 (setting [2]), ≥ 63100 nM; in the experiment with HLA-A*31:01 (setting [2]), 3700 nM; in the experiment with HLA-A*33:01 (setting [2]), ≥ 48100 nM; with HLA-A*11:01 (setting [2]) it was 306 nM.
Consider SRIFEDLVWK, for which the dissociation constant Kd was 872 nM with HLA-A*03:01 (setting [3]); 572 nM with HLA-A*68:01 (setting [3]); 8380 nM with HLA-A*31:01 (setting [3]); ≥ 59100 nM in the experiment with HLA-A*33:01 (setting [3]); 620 nM with HLA-A*11:01 (setting [3]).

(Values after the Immune Epitope Database (IEDB).)
